Measured values as given in the supplement of paper PMC10899765.
Several values for one entry are separate records, joined by “and”; a condition that tells them apart may be missing. Equal values may be shown once.

System: MCF10A
Experiment: one-nucleolus phenotype percent effect (relative to siNT 0% and siNOL11 100%); higher = more cells with one nucleolus (ribosome biogenesis inhibition)
Conditions: 20 nM; 72 h
Description: (§1)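 After 72 h, cells were fixed and stained with Hoechst and anti-fibrillarin, and nucleoli per nucleus were counted with CellProfiler. Values are plate-adjusted percent effect for the one-nucleolus and 5+ nucleoli phenotypes, normalised to siNT (0%) and to the positive controls siNOL11 or siKIF11 (100%), as the mean of biological triplicates. Percent viability is the nuclei count relative to siNT.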

Going from “UAAGUGCUUCCAUGUUUUGGUGA [hsa-miR-302a-3p]” to GCAGGGACAGCAAAGGGGUGC [hsa-miR-211-3p], the “one-nucleolus phenotype percent effect” value rises from -15.9% to 9.24%.

First: UGGGAUCCAGACAGUGGGAGAA [hsa-miR-4713-3p]
Second: UGCUGAGGUCCGGGCUGUGCC [hsa-miR-7160-5p]
The “one-nucleolus phenotype percent effect” value of the first is lower: -1.28% for the first, 47.5% for the second.

First: UAGCAGCACAUAAUGGUUUGUG [hsa-miR-15a-5p]
Second: UCCCAAGGGUGAGAUGCUGCCA [hsa-miR-6814-5p]
The “one-nucleolus phenotype percent effect” value of the first is higher: 40.1% for the first, 7.66% for the second.

Compared with UUCACAGGGAGGUGUCAU [hsa-miR-513a-5p], UGCCCUCCUUUCUUCCCUC [hsa-miR-4290] is lower in “one-nucleolus phenotype percent effect” value: 24.8% for the first, -1.5% for the second.

Compared with AAGACUGAGAGGAGGGA [hsa-miR-4499], “UGGUCGACCAGUUGGAAAGUAAU [hsa-miR-412-5p]” is higher in “one-nucleolus phenotype percent effect” value: -14% for the first, 13.6% for the second.

Compared with UUGCUCACUGUUCUUCCCUAG [hsa-miR-1178-3p], UUGUCUGCUGAGUUUCC [hsa-miR-4288] is higher in “one-nucleolus phenotype percent effect” value: 0.794% for the first, 27.6% for the second.

Going from “UCUGGGCAACAAAGUGAGACCU [hsa-miR-1285-3p]” to “UUCUGGAUAUGAAGACAAUCAA [hsa-miR-4782-5p]”, the “one-nucleolus phenotype percent effect” value rises from 20.6% to 44.9%.

Going from UCCAGUGCCCUCCUCUCC [hsa-miR-1825] to AGGCAGCGGGGUGUAGUGGAUA [hsa-miR-885-3p], the “one-nucleolus phenotype percent effect” value rises from -8.72% to 61.2%.

First: AAAGUGCUUCCUUUUAGAGGG [hsa-miR-520b]
Second: GUUGGGGUGCAGGGGUCUGCU [hsa-miR-5572]
The “one-nucleolus phenotype percent effect” value of the first is lower: -19.2% for the first, 43.3% for the second.

Going from GAGGGUCUUGGGAGGGAUGUGAC [hsa-miR-1182] to “UCAGGACACUUCUGAACUUGGA [hsa-miR-5000-3p]”, the “one-nucleolus phenotype percent effect” value rises from -20.9% to -10.1%.

Compared with ACUCUAGCUGCCAAAGGCGCU [hsa-miR-1251], “CUCGGGAGGGCAUGGGCCAGGC [hsa-miR-6771-5p]” is higher in “one-nucleolus phenotype percent effect” value: -4.32% for the first, -0.506% for the second.

First: UGACCUGGGACUCGGACAGCUG [hsa-miR-3661]
Second: UCAAAAUGUAGAGGAAGACCCCA [hsa-miR-4698]
The “one-nucleolus phenotype percent effect” value of the first is higher: 35.2% for the first, -18.4% for the second.

Compared with UGACUCUGCCUGUAGGCCGGU [hsa-miR-4522], CAGUGUUCAGAGAUGGA [hsa-miR-4255] is lower in “one-nucleolus phenotype percent effect” value: 23.6% for the first, -51.8% for the second.

Going from ACAGGCAGGAUUGGGGAA [hsa-miR-4514] to AAAAGUAAUUGUGGAUUUUGCU [hsa-miR-548ab], the “one-nucleolus phenotype percent effect” value falls from 32.3% to -19.3%.

First: CAGUGCAAUGAUGAAAGGGCAU [hsa-miR-130b-3p]
Second: CUUGGAUUUUCCUGGGCCUCAG [hsa-miR-5004-3p]
The “one-nucleolus phenotype percent effect” value of the first is lower: -14.8% for the first, 4.88% for the second.

Compared with UCGUGCAUAUAUCUACCACAU [hsa-miR-4536-3p], UGACCUCUCCGCUCCGCACAG [hsa-miR-6821-3p] is higher in “one-nucleolus phenotype percent effect” value: 2.78% for the first, 7.28% for the second.

Going from UAGGAGGGAAUAGUAAAAGCAG [hsa-miR-4779] to UCAUCCUCGUCUCCCUCCCAG [hsa-miR-5196-3p], the “one-nucleolus phenotype percent effect” value falls from 54.7% to -13.1%.

Going from AGGACCUUCCCUGAACCAAGGA [hsa-miR-659-5p] to “UGCAUGACCCUUCCCUCCCCAC [hsa-miR-6797-3p]”, the “one-nucleolus phenotype percent effect” value falls from 34.3% to 1.95%.

Going from CAAAAGUAAUUGUGGAUUUUGU [hsa-miR-548n] to CCAGUUACCGCUUCCGCUACCGC [hsa-miR-935], the “one-nucleolus phenotype percent effect” value rises from -23.6% to 15.8%.

Compared with “AGGGCCAGAGGAGCCUGGAGUGG [hsa-miR-4726-5p]”, GGGGGGAUGUGCAUGCUGGUU [hsa-miR-4525] is higher in “one-nucleolus phenotype percent effect” value: 5.63% for the first, 22.7% for the second.

First: UACGUAGAUAUAUAUGUAUUUU [hsa-miR-1277-3p]
Second: GACCGAGAGGGCCUCGGCUGU [hsa-miR-4523]
The “one-nucleolus phenotype percent effect” value of the first is lower: -20.9% for the first, -18% for the second.

Compared with “UGACGCCCCUUCUGAUUCUGCCU [hsa-miR-6786-3p]”, “UCAGCAGGCAGGCUGGUGCAGC [hsa-miR-3619-5p]” is higher in “one-nucleolus phenotype percent effect” value: 0.306% for the first, 56.3% for the second.

Compared with AAGGCCUUUCUGAACCUUCAGA [hsa-miR-3142], AGGGCAUGUCCAGGGGGU [hsa-miR-4253] is lower in “one-nucleolus phenotype percent effect” value: 19.5% for the first, 18.3% for the second.

Compared with “ACUGGGAAGAGGAGCUGAGGGA [hsa-miR-4646-5p]”, UACCCAGAGCAUGCAGUGUGAA [hsa-miR-1912] is higher in “one-nucleolus phenotype percent effect” value: 21.9% for the first, 39.9% for the second.

Compared with AAAUUAUUGUACAUCGGAUGAG [hsa-miR-944], ACUGAAUCCUCUUUUCCUCAG [hsa-miR-5187-3p] is lower in “one-nucleolus phenotype percent effect” value: 9.85% for the first, -12.2% for the second.

Going from “AACUAGCUCUGUGGAUCCUGAC [hsa-miR-4661-5p]” to AAGCCUCUGUCCCCACCCCAG [hsa-miR-6819-3p], the “one-nucleolus phenotype percent effect” value falls from 21.8% to -17.6%.

Going from CUAUACGGCCUCCUAGCUUUCC [hsa-let-7e-3p] to UGUGACAAUAGAGAUGAACAUG [hsa-miR-4504], the “one-nucleolus phenotype percent effect” value rises from -18.7% to 30.4%.

First: UGGGUUUACGUUGGGAGAACU [hsa-miR-629-5p]
Second: UAGCACCAUUUGAAAUCAGUGUU [hsa-miR-29b-3p]
The “one-nucleolus phenotype percent effect” value of the first is higher: 17.7% for the first, -20.6% for the second.

Compared with CAAACCACACUGUGGUGUUAGA [hsa-miR-497-3p], “GCUACUUCACAACACCAGGGCC [hsa-miR-138-1-3p]” is lower in “one-nucleolus phenotype percent effect” value: -11.5% for the first, -15.7% for the second.

For GCCCAAAGGUGAAUUUUUUGGG [hsa-miR-186-3p], the “one-nucleolus phenotype percent effect” value was -20.2%.

ACUGGACUUGGAGUCAGAAA [hsa-miR-378d] was tested, and the “one-nucleolus phenotype percent effect” value was 2.4% and 10.6%.

System: MCF10A
Experiment: 5+ nucleoli phenotype percent effect (relative to siNT 0% and siKIF11 100%); higher = more cells with five or more nucleoli
Conditions: 20 nM; 72 h
Description: as §1

Compared with “UAAGUGCUUCCAUGUUUUGGUGA [hsa-miR-302a-3p]”, GCAGGGACAGCAAAGGGGUGC [hsa-miR-211-3p] is lower in “5+ nucleoli phenotype percent effect” value: 72.3% for the first, -20.9% for the second.

Compared with “UGGGAUCCAGACAGUGGGAGAA [hsa-miR-4713-3p]”, UGCUGAGGUCCGGGCUGUGCC [hsa-miR-7160-5p] is lower in “5+ nucleoli phenotype percent effect” value: 16.3% for the first, -22.1% for the second.

Going from UAGCAGCACAUAAUGGUUUGUG [hsa-miR-15a-5p] to “UCCCAAGGGUGAGAUGCUGCCA [hsa-miR-6814-5p]”, the “5+ nucleoli phenotype percent effect” value rises from -43.7% to -13.3%.

Going from UUCACAGGGAGGUGUCAU [hsa-miR-513a-5p] to UGCCCUCCUUUCUUCCCUC [hsa-miR-4290], the “5+ nucleoli phenotype percent effect” value rises from -25.5% to -8.55%.

First: AAGACUGAGAGGAGGGA [hsa-miR-4499]
Second: UGGUCGACCAGUUGGAAAGUAAU [hsa-miR-412-5p]
The “5+ nucleoli phenotype percent effect” value of the first is higher: 3.14% for the first, -1.85% for the second.

First: UUGCUCACUGUUCUUCCCUAG [hsa-miR-1178-3p]
Second: UUGUCUGCUGAGUUUCC [hsa-miR-4288]
The “5+ nucleoli phenotype percent effect” value of the first is lower: -31.4% for the first, -15.9% for the second.

Compared with “UCUGGGCAACAAAGUGAGACCU [hsa-miR-1285-3p]”, “UUCUGGAUAUGAAGACAAUCAA [hsa-miR-4782-5p]” is lower in “5+ nucleoli phenotype percent effect” value: 2.8% for the first, -38.6% for the second.

Going from UCCAGUGCCCUCCUCUCC [hsa-miR-1825] to AGGCAGCGGGGUGUAGUGGAUA [hsa-miR-885-3p], the “5+ nucleoli phenotype percent effect” value falls from -2.13% to -36.7%.

First: AAAGUGCUUCCUUUUAGAGGG [hsa-miR-520b]
Second: GUUGGGGUGCAGGGGUCUGCU [hsa-miR-5572]
The “5+ nucleoli phenotype percent effect” value of the first is higher: 70.5% for the first, -19.8% for the second.

First: GAGGGUCUUGGGAGGGAUGUGAC [hsa-miR-1182]
Second: UCAGGACACUUCUGAACUUGGA [hsa-miR-5000-3p]
The “5+ nucleoli phenotype percent effect” value of the first is higher: 44.5% for the first, 20.7% for the second.

First: ACUCUAGCUGCCAAAGGCGCU [hsa-miR-1251]
Second: CUCGGGAGGGCAUGGGCCAGGC [hsa-miR-6771-5p]
The “5+ nucleoli phenotype percent effect” value of the first is higher: 11.2% for the first, -1.93% for the second.

Going from UGACCUGGGACUCGGACAGCUG [hsa-miR-3661] to UCAAAAUGUAGAGGAAGACCCCA [hsa-miR-4698], the “5+ nucleoli phenotype percent effect” value rises from -25.2% to 21.6%.

Compared with UGACUCUGCCUGUAGGCCGGU [hsa-miR-4522], CAGUGUUCAGAGAUGGA [hsa-miR-4255] is higher in “5+ nucleoli phenotype percent effect” value: -19.6% for the first, 68.6% for the second.

Compared with ACAGGCAGGAUUGGGGAA [hsa-miR-4514], AAAAGUAAUUGUGGAUUUUGCU [hsa-miR-548ab] is higher in “5+ nucleoli phenotype percent effect” value: -12% for the first, 30.5% for the second.

“CAGUGCAAUGAUGAAAGGGCAU [hsa-miR-130b-3p]” was tested, and the “5+ nucleoli phenotype percent effect” value was 59.9%.

For ACUGGACUUGGAGUCAGAAA [hsa-miR-378d], the “5+ nucleoli phenotype percent effect” value was 9.46% and 4.63%.
